Reference: the supplement of paper PMC9112550, “Optimization of the antimicrobial peptide Bac7 by deep mutational scanning” (BMC Biology, 2022)

Test system: Escherichia coli TOP10
Assay: shrunken log2 fold change of peptide-encoding DNA abundance (4.5 h post-induction vs induction); higher = less antimicrobial activity (less host growth inhibition)
Settings: time post-induction: 4.5 h; library: site-saturation at positions 5, 18, 19, 20
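Further: peptides expressed intracellularly from a pBAD plasmid library in pooled LB shake-flask culture, induced with 0.3% L-arabinose, DNA abundance read by NGS, three biological replicates, DESeq2 with apeglm shrinkage.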

| Sequence | shrunken log2 fold change |
| --- | --- |
| RRIRRRPPRLPRPRPRPMLTPRP | 0.211 |
| RRIRVRPPRLPRPRPRPKMGPRP | 0.0797 |
| RRIRWRPPRLPRPRPRPERPPRP | 0.292 |
| RRIRVRPPRLPRPRPRPRMAPRP | 0.199 |
| RRIRMRPPRLPRPRPRPFMLPRP | -0.213 |
| RRIRTRPPRLPRPRPRPACSPRP | 0.19 |
| RRIRCRPPRLPRPRPRPNGTPRP | -0.0476 |
| RRIRDRPPRLPRPRPRPLFHPRP | -0.152 |
| RRIRIRPPRLPRPRPRPRQHPRP | -0.199 |
| RRIRCRPPRLPRPRPRPYWWPRP | -0.441 |
| RRIRGRPPRLPRPRPRPYCSPRP | -0.0241 |
| RRIRDRPPRLPRPRPRPMIEPRP | 0.0558 |
| RRIRERPPRLPRPRPRPMDRPRP | 0.0196 |
| RRIRQRPPRLPRPRPRPCGFPRP | -0.0124 |
| RRIRNRPPRLPRPRPRPYCFPRP | -0.516 |
| RRIRMRPPRLPRPRPRPACFPRP | 0.421 |
| RRIRHRPPRLPRPRPRPYKFPRP | -0.0481 |
| RRIRMRPPRLPRPRPRPKRRPRP | 1.02 |
| RRIRERPPRLPRPRPRPGRIPRP | -0.0858 |
| RRIRGRPPRLPRPRPRPNCNPRP | 0.199 |
| RRIRGRPPRLPRPRPRPACKPRP | 0.923 |
| RRIRGRPPRLPRPRPRPHFLPRP | 1.03 |
| RRIRNRPPRLPRPRPRPVETPRP | 0.157 |
| RRIRARPPRLPRPRPRPMSGPRP | 0.0632 |
| RRIRLRPPRLPRPRPRPNHDPRP | -0.333 |

| Sequence | shrunken log2 fold change |
| --- | --- |
| RRIRVRPPRLPRPRPRPRSYPRP | -0.0987 |
| RRIRQRPPRLPRPRPRPFTMPRP | -0.141 |
| RRIRARPPRLPRPRPRPVAPPRP | 0.612 |
| RRIRARPPRLPRPRPRPLTYPRP | 0.0247 |
| RRIRDRPPRLPRPRPRPMNCPRP | -0.00373 |
| RRIRWRPPRLPRPRPRPACRPRP | 0.258 |
| RRIRFRPPRLPRPRPRPDFTPRP | 0.138 |
| RRIRERPPRLPRPRPRPWFWPRP | 0.061 |
| RRIRWRPPRLPRPRPRPVGAPRP | 1.73 |
| RRIRGRPPRLPRPRPRPDTDPRP | 1.01 |
| RRIRIRPPRLPRPRPRPNSHPRP | -0.866 |
| RRIRQRPPRLPRPRPRPLFRPRP | -0.227 |
| RRIRDRPPRLPRPRPRPTMDPRP | -0.0444 |
| RRIRDRPPRLPRPRPRPIIVPRP | 0.0216 |
| RRIRQRPPRLPRPRPRPAEAPRP | 0.61 |
| RRIRARPPRLPRPRPRPASDPRP | 0.661 |
| RRIRIRPPRLPRPRPRPYAFPRP | -1.1 |
| RRIRHRPPRLPRPRPRPILQPRP | -0.152 |
| RRIRLRPPRLPRPRPRPIMGPRP | -0.0219 |
| RRIRARPPRLPRPRPRPDEPPRP | 0.0489 |
| RRIRARPPRLPRPRPRPREAPRP | 1.25 |
| RRIRSRPPRLPRPRPRPNPFPRP | -0.236 |
| RRIRLRPPRLPRPRPRPNFDPRP | 0.0771 |
| RRIRCRPPRLPRPRPRPNSHPRP | -0.556 |
| RRIRLRPPRLPRPRPRPPCFPRP | 0.242 |

| Sequence | shrunken log2 fold change |
| --- | --- |
| RRIRQRPPRLPRPRPRPQLMPRP | -0.166 |
| RRIRSRPPRLPRPRPRPALMPRP | 0.323 |
| RRIRKRPPRLPRPRPRPCVMPRP | 0.0542 |
| RRIRWRPPRLPRPRPRPKASPRP | -0.00939 |
| RRIRLRPPRLPRPRPRPETLPRP | 0.228 |
| RRIRTRPPRLPRPRPRPVTQPRP | 0.0354 |
| RRIRNRPPRLPRPRPRPFDFPRP | -0.161 |
| RRIRPRPPRLPRPRPRPARYPRP | 0.19 |
| RRIRVRPPRLPRPRPRPMCIPRP | -0.047 |
| RRIRGRPPRLPRPRPRPVKHPRP | 0.168 |
| RRIRGRPPRLPRPRPRPRDSPRP | 0.257 |
| RRIRRRPPRLPRPRPRPQDNPRP | -0.668 |
| RRIRPRPPRLPRPRPRPMWNPRP | -0.216 |
| RRIRFRPPRLPRPRPRPRCGPRP | 0.114 |
| RRIRVRPPRLPRPRPRPGQDPRP | -0.41 |
| RRIRCRPPRLPRPRPRPKTHPRP | -0.115 |
| RRIRQRPPRLPRPRPRPKMSPRP | -0.101 |
| RRIRYRPPRLPRPRPRPFNTPRP | -0.468 |
| RRIRDRPPRLPRPRPRPPMDPRP | 0.28 |
| RRIRMRPPRLPRPRPRPSSEPRP | -0.103 |
| RRIRDRPPRLPRPRPRPISNPRP | -0.175 |
| RRIRQRPPRLPRPRPRPNNTPRP | -0.578 |
| RRIRKRPPRLPRPRPRPMSYPRP | -0.0167 |
| RRIRTRPPRLPRPRPRPLDTPRP | -0.566 |
| RRIRFRPPRLPRPRPRPDRRPRP | -0.39 |

| Sequence | shrunken log2 fold change |
| --- | --- |
| RRIRLRPPRLPRPRPRPCYMPRP | -0.308 |
| RRIRGRPPRLPRPRPRPRAYPRP | 0.338 |
| RRIRQRPPRLPRPRPRPAINPRP | -0.171 |
| RRIRKRPPRLPRPRPRPIIAPRP | -0.0395 |
| RRIRRRPPRLPRPRPRPLKKPRP | 0.169 |
| RRIRPRPPRLPRPRPRPCSGPRP | -0.0356 |
| RRIRFRPPRLPRPRPRPCYPPRP | -0.451 |
| RRIRKRPPRLPRPRPRPVTSPRP | 0.0678 |
| RRIRVRPPRLPRPRPRPAHRPRP | -0.0183 |
| RRIRCRPPRLPRPRPRPNIRPRP | -0.517 |
| RRIRCRPPRLPRPRPRPLGFPRP | -0.116 |
| RRIRDRPPRLPRPRPRPRATPRP | 0.614 |
| RRIRNRPPRLPRPRPRPRMSPRP | -0.238 |
| RRIRARPPRLPRPRPRPSPCPRP | 0.0808 |
| RRIRERPPRLPRPRPRPGACPRP | 0.0171 |
| RRIRTRPPRLPRPRPRPYEPPRP | -0.18 |
| RRIRNRPPRLPRPRPRPWNFPRP | -0.0018 |
| RRIRNRPPRLPRPRPRPLMRPRP | 0.627 |
| RRIRFRPPRLPRPRPRPMMPPRP | -0.0286 |
| RRIRLRPPRLPRPRPRPQTIPRP | -0.234 |
| RRIRWRPPRLPRPRPRPLIKPRP | 0.114 |
| RRIRDRPPRLPRPRPRPIPNPRP | 0.0139 |
| RRIRIRPPRLPRPRPRPGSQPRP | -0.0143 |
| RRIRNRPPRLPRPRPRPDSYPRP | -0.054 |
| RRIRFRPPRLPRPRPRPNRGPRP | 0.149 |

| Sequence | shrunken log2 fold change |
| --- | --- |
| RRIRWRPPRLPRPRPRPYMSPRP | -0.212 |
| RRIRGRPPRLPRPRPRPYQLPRP | 0.147 |
| RRIRMRPPRLPRPRPRPPPRPRP | 2.36 |
| RRIRVRPPRLPRPRPRPIIMPRP | 0.0741 |
| RRIRVRPPRLPRPRPRPHCCPRP | -0.147 |
| RRIRDRPPRLPRPRPRPTPQPRP | 0.0786 |
| RRIRFRPPRLPRPRPRPAVCPRP | 0.925 |
| RRIRLRPPRLPRPRPRPINEPRP | -0.0016 |
| RRIRWRPPRLPRPRPRPRNNPRP | -0.162 |
| RRIRRRPPRLPRPRPRPYDWPRP | -0.0665 |
| RRIRPRPPRLPRPRPRPFMKPRP | -0.915 |
| RRIRQRPPRLPRPRPRPMGVPRP | -0.00411 |
| RRIRQRPPRLPRPRPRPQYNPRP | -1.1 |
| RRIRDRPPRLPRPRPRPTGLPRP | -0.000418 |
| RRIRYRPPRLPRPRPRPRNEPRP | -0.0133 |
| RRIRCRPPRLPRPRPRPLSCPRP | -0.184 |
| RRIRRRPPRLPRPRPRPFWFPRP | -0.138 |
| RRIRERPPRLPRPRPRPVPQPRP | -0.195 |
| RRIRWRPPRLPRPRPRPMIAPRP | 0.00921 |
| RRIRIRPPRLPRPRPRPMKEPRP | 0.116 |
| RRIRTRPPRLPRPRPRPELLPRP | 0.39 |
| RRIRTRPPRLPRPRPRPHFKPRP | -0.307 |
| RRIRSRPPRLPRPRPRPRWIPRP | 0.00261 |
| RRIRSRPPRLPRPRPRPTGHPRP | -0.0852 |
| RRIRFRPPRLPRPRPRPRDYPRP | -0.2 |

| Sequence | shrunken log2 fold change |
| --- | --- |
| RRIRFRPPRLPRPRPRPEPWPRP | 0.172 |
| RRIRNRPPRLPRPRPRPMFVPRP | 0.134 |
| RRIRVRPPRLPRPRPRPLPGPRP | 0.547 |
| RRIRARPPRLPRPRPRPFWIPRP | -0.0619 |
| RRIRPRPPRLPRPRPRPKHQPRP | 0.0315 |
| RRIRDRPPRLPRPRPRPVVRPRP | 0.155 |
| RRIRNRPPRLPRPRPRPGSRPRP | -0.0159 |
| RRIRARPPRLPRPRPRPVFNPRP | -0.297 |
| RRIRVRPPRLPRPRPRPLDRPRP | -0.117 |
| RRIRWRPPRLPRPRPRPAIMPRP | -0.211 |
| RRIRPRPPRLPRPRPRPDFLPRP | -0.235 |
| RRIRVRPPRLPRPRPRPWNCPRP | 0.0131 |
| RRIRLRPPRLPRPRPRPCQFPRP | -0.0181 |
| RRIRTRPPRLPRPRPRPTQAPRP | 0.111 |
| RRIRPRPPRLPRPRPRPDAGPRP | 0.442 |
| RRIRYRPPRLPRPRPRPDVKPRP | -0.294 |
| RRIRGRPPRLPRPRPRPFHRPRP | -0.118 |
| RRIRMRPPRLPRPRPRPNYNPRP | -0.678 |
| RRIRYRPPRLPRPRPRPILAPRP | -0.353 |
| RRIRIRPPRLPRPRPRPETQPRP | 0.0575 |
| RRIRFRPPRLPRPRPRPCNGPRP | -0.212 |
| RRIRERPPRLPRPRPRPHSHPRP | -0.269 |
| RRIRKRPPRLPRPRPRPYLYPRP | -0.404 |
| RRIRERPPRLPRPRPRPFNCPRP | 0.0173 |
| RRIRARPPRLPRPRPRPSWPPRP | 0.164 |
